Stability in urine and opiate activity data for two substances are collected here from patent publication EP0969015A2, “Peptide diagnostic markers for human disorders” (Ortho-Clinical Diagnostics, Inc., priority 1998, dated 2000).

Data set [1] is described as follows: Stability of peptides in urine samples. Conditions: compared with the gluten/casein related peptides; not studied in a systematic manner.
For data set [2] the following is noted: relative to morphine; cited from earlier work.

For the substance “NH4-Tyr AlaPheGluValValGly-COOH (H-YAFEVVG-OH) [deltorphin II]”, in data set [1], the stability in urine entry is “more stable in urine than the gluten/casein related peptides”. On to “NH4-TyrAlaPheGlyTyrProSer-COOH [dermorphin]”, for which, in data set [2], the opiate activity is 1000 times. Moreover, in data set [1], the stability in urine result is listed as “more stable in urine than the gluten/casein related peptides”.
